Data: US20250018036A1 (published 2025)
Blank lines part the entries; values can stand above or below the binder they belong to.

Molecular target: T1, SOX2 peptide on HLA-A*02:01 (human)
T1 peptide: YLPGAEVPEPA
Test: multimer staining
Method: Methods: TCR expression vectors were sequenced after Gibson assembly to confirm successful insertion of the TCR expression cassettes into the pRRLSIN vector. Lentiviral particles were generated using the 293T/17 packaging cell line and the Effectene kit (Qiagen). CD8⁺ T cells were isolated from a healthy donor (18648) using negative magnetic separation (Easy Sep Kit, […] Technologies), stimulated for 4 hours with anti-CD3/CD28 beads (Dynabeads), and transduced with SOX2-TCR-encoding lentiviral particles collected from 293T/17 cells. Transduced CD8⁺ T cells were assessed for tetramer staining on day 5 post transduction. SOX2-TCR⁺ CD8⁺ T cells are sorted for rapid expansion, and assessed for response to different peptide concentrations, and target killing.

- binding result: recognises
B1: SOX2 TCR #05 (TCR, V domains shown)
Valpha: AQKITQTQPGMFVQEKEAVTLDCTYDTSDPSYGLFWYKQPSSGEMIFLIYQGSYDQQNATEGRYSLNFQKARKSANLVISASQLGDSAMYFCAMREGMGFQKLVFGTGTRLLVSP
Vbeta: DVKVTQSSRYLVKRTGEKVFLECVQDMDHENMFWYRQDPGLGLRLIYFSYDVKMKEKGDIPEGYSVSREKKERFSLILESASTNQTSMYLCASRPEMGGRGNQPQHFGDGTRLSIL

- binding result: recognises
B2: SOX2 TCR #10 (TCR, V domains shown)
Valpha: GEDVEQSLFLSVREGDSSVINCTYTDSSSTYLYWYKQEPGAGLQLLTYIFSNMDMKQDQRLTVLLNKKDKHLSLRIADTQTGDSAIYFCAGPLGGSQGNLIFGKGTKLSVKP
Vbeta: EADIYQTPRYLVIGTGKKITLECSQTMGHDKMYWYQQDPGMELHLIHYSYGVNSTEKGDLSSESTVSRIRTEHFPLTLESARPSHTSQYLCASSRGPEAFFGQGTRLTVV
